Experimental data reported in patent US10442866 (BEIJING MABWORKS BIOTECH, dated 2019).

T1: murine OX40-His (Crown, Cat#: E3350-B1707) (mouse, UniProt P47741 20-211)
T1 construct: bought protein; also called mouse OX40-his; muOX40-his; not shown: His tag
T1 sequence: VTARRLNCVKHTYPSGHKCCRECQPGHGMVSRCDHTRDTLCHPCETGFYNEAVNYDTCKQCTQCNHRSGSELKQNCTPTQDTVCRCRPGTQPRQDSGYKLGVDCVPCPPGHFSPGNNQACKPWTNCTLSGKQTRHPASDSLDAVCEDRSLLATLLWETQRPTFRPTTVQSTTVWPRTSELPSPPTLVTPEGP

T2: mouse OX40 expressed on HEK293A cells (mouse, UniProt P47741 20-272)
T2 construct: also called HEK293A/muOX40; HEK293A/mouseOX40 cells
T2 sequence: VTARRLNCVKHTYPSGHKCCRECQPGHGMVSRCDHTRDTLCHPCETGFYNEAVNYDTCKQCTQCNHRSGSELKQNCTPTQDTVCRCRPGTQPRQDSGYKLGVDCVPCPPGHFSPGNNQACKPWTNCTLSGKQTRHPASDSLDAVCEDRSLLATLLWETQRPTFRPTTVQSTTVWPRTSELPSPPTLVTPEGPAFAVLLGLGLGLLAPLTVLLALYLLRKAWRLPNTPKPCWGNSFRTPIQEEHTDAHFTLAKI

T3: rhesus OX40 expressed on HEK293A cells (rhesus, UniProt P43489 29-277 (human entry))
T3 construct: also called HEK293A/rhOX40; HEK293A/rhesusOX40 cells
T3 chain: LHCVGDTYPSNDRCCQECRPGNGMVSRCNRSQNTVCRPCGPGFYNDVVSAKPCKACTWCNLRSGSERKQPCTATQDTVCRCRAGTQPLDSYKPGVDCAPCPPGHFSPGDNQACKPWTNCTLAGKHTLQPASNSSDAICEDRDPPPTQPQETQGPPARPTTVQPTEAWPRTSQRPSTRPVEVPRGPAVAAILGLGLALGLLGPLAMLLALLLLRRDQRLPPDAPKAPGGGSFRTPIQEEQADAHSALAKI

T4: human OX40 expressed on HEK293A cells (human, UniProt P43489 29-277)
T4 construct: also called HEK293A/huOX40; HEK293A/human OX40 cells
T4 sequence: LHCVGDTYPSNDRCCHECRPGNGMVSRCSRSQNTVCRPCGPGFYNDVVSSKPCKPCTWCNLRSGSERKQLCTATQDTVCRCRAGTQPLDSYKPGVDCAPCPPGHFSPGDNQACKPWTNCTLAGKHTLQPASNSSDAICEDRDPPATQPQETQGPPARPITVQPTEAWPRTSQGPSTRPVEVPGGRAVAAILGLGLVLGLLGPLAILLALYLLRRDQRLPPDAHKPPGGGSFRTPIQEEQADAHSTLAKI

T5: recombinant rhesus OX40-his (Sino Biological, Cat#:90846-C08H) (rhesus monkey, UniProt P43489 29-214 (human entry))
T5 construct: bought protein; also called monkey OX40-his; rhOX40-his; not shown: His tag
T5 chain: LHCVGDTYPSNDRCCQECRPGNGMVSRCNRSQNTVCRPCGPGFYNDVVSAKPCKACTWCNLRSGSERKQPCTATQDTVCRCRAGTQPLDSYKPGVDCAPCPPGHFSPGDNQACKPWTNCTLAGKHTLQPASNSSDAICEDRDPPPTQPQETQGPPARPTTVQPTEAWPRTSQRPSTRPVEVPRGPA

T6: recombinant human OX40-his (Sino Biological, Cat#:10481-H03H) (human, UniProt P43489 29-214)
T6 construct: bought protein; also called hOX40-his; not shown: His tag
T6 sequence: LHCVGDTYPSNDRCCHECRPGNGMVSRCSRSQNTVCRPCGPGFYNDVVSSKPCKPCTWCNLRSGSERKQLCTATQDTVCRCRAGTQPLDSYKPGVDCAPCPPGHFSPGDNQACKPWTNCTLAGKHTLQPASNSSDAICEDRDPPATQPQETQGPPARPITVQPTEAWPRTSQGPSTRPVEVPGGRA

T7: human OX40-CD40 fusion protein on HEK-Blue reporter cells (human)
T7 chain: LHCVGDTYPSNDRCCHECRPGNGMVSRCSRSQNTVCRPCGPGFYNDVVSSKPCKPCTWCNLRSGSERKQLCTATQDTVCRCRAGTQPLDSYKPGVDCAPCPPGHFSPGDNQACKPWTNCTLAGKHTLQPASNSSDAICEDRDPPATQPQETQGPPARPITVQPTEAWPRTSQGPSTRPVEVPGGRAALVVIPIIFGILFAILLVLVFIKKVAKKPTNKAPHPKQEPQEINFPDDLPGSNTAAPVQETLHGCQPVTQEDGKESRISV


Key:
[1] = target: T1, murine OX40-His (Crown, Cat#: …); assay: ELISA, coated muOX40-his
[2] = target: T2, mouse OX40 expressed on HEK293A cells; assay: FACS on HEK293A/muOX40 cells
Experimental: (§1) Briefly, 10^5 HEK293A cells were seeded into each well of the 96-well plates and serially diluted anti-OX40 antibodies were added to the plates. After incubated at 4° C. for 1 hour, plates were washed 3 times with PBST. Then, an APC coupled Goat Anti-Mouse IgG (BioLegen, US, Cat#: 405308) diluted 500× was added to the plates. After incubation at 4° C. for 1 hour, the plates were washed with PBS for 3 times and then cell fluorescence was monitored using a FACS machine (BD).

[3] = target: T3, rhesus OX40 expressed on HEK293A cells; assay: FACS on HEK293A cells
Experimental: as §1

[4] = target: T4, human OX40 expressed on HEK293A cells; assay: FACS on HEK293A cells
Experimental: as §1

[5] = target: T5, recombinant rhesus OX40-his (Sino …); assay: ELISA, coated rhOX40-his
Experimental: (§2) ELISA plates were coated with 500 ng/ml human OX40-his (used in Example 2) at 4° C. overnight. The wells were blocked with 200 µl of blocking buffer (PBS containing 1% BSA, 1% goat serum, 0.05% Tween 20) for 2 hours at room temperature, and then 100 µl of serially diluted anti-OX40 antibodies (starting from 40 µg/ml) were added to each well and incubated for 1 hour at RT. Plates were washed for 3 times with PBST (PBS+0.05% Tween 20), added with Goat-anti-mouse IgG-HRP (Simga, US, Cat#: A9309-1 ml) diluted 5000×, and incubated for 1 hour at RT. Plates were developed with freshly prepared Ultra-TMB (BD, US, Cat#: 555214) for 5 minutes at RT. Absorbance was read on a SpectraMax® i3× (Molecular Devies, US) at 450 nm.
Species-cross-reactivity of the 33 OX40 mAbs to monkey or mouse OX40 was further assessed by direct ELISA. Briefly, 500 ng/ml monkey OX40-his or mouse OX40-his (used in Example 2) was coated on 96-well ELISA plates followed by incubation with 100 µl of serially diluted anti-OX40 antibodies (starting from 40 µg/ml). Goat anti-mouse IgG (Sigma, US, Cat#:A9309-1 ml) conjugated with HRP was used then.

[6] = target: T6, recombinant human OX40-his (Sino …); assay: ELISA, coated hOX40-his
Experimental: as §2

[7] = target: T7, human OX40-CD40 fusion protein on …; assay: cell-based or functional assay
[8] = target: T4, human OX40 expressed on HEK293A cells; assay: FACS on HEK293A/huOX40 cells
[9] = target: T6, recombinant human OX40-his (Sino …); assay: SPR Biacore 8K, OX40-His on chip, antibody injected
Experimental: SPR assays were used to determine the binding affinity of the chimetic or humanized anti-OX40 antibodies to human OX40 with the BIAcore™ 8K instrument (GE Life Sciences). Briefly, 100-200 response units (RU) of human OX40-His protein (Sino Biological, CN, Cat#:10481-H03H, Lot no.: MA08MA3003) were coupled to CM5 biosensor chips (Cat#: BR-1005-30, GE Life Sciences), followed by blocking of un-reacted groups with 1M ethanolamine. Serially diluted antibodies at concentrations ranging from 0.3 µM to 10 µM were injected into the SPR running buffer (HBS-EP buffer, pH7.4, GE Life Sciences; US; Cat#:BR-1006-69) at 30 µL/minute. The binding capacitity was calculated with the RUs of blank controls subtracted. The association rate (k_a) and dissociation rate (k_d) were calculated using the one-to-one Langmuir binding model (BIA Evaluation Software, GE Life Sciences). The equilibrium dissociation constant K_D was calculated as the k_d/k_a ratio.

[10] = target: T5, recombinant rhesus OX40-his (Sino …); assay: ELISA on coated rhesus OX40-His, OD450
[11] = target: T3, rhesus OX40 expressed on HEK293A cells; assay: FACS on HEK293A/rhOX40 cells
[12] = target: T1, murine OX40-His (Crown, Cat#: …); assay: ELISA on coated mouse OX40-His, OD450
[13] = target: T6, recombinant human OX40-his (Sino …); assay: ELISA on coated human OX40-His, OD450
[14] = target: T3, rhesus OX40 expressed on HEK293A cells; assay: FACS on HEK293A/rhesus OX40 cells, MFI (panel without title; monkey OX40 by the legend)
Experimental: as §1
Example 15 Humanized Anti-OX40 Antibodies Bound to Human or Rhesus OX40 Expressed on HEK293A Cells The humanized anti-OX40 antibodies were also tested for their ability of binding to HEK293A/huOX40 cells or HEK293A/rhOX40 cells, following the FACS analysis protocol as described in Example 5.

[15] = target: T1, murine OX40-His (Crown, Cat#: …); assay: ELISA

| Binder | binding result [1] | binding result [2] | EC50 [3] | EC50 [4] | EC50 [5] | EC50 [6] | EC50, agonistic activity in HEK-Blue assay [7] | EC50 [8] | Kd [9] | koff [9] | kon [9] | EC50 (read off the curve) [10] | EC50 [11] | binding result [12] | EC50 (read off the curve) [13] | binding result [14] | binding result [15] |
| --- | --- | --- | --- | --- | --- | --- | --- | --- | --- | --- | --- | --- | --- | --- | --- | --- | --- |
| 68C8 (murine monoclonal antibody) (antibody, V domains shown) VH: QVQLQQSGAELVKPGASVKMSCKASGDTFTSYWITWVKQRPGQGLEWIGDIHPGSGSTNNNEKFKNKATLTVDTSSSTAYMQLSSLTSEDSAVYYCAKLRPYYFVYWGQGTTLTVSS VL: DIQMTQTTSSLSASLGDRVTISCRASQDISNYLNWYQQKPDGTVKLLIYYTSRLLSGVPSRFSGSGSGTDYSLTISNLEQEDIATYFCQQGNTLPLTFGAGTRLELK | no binding (tested: serial dilution from 40 µg/ml) | no binding | 0.095 µg/mL | 0.113 µg/mL | 0.06 µg/mL | 0.0483 µg/mL | 86.6 ng/mL |  |  |  |  |  |  |  |  |  |  |
| chimeric antibody 71H8 (antibody, human IgG1, kappa, V domains shown, mouse variable regions with human IgG1/kappa constant regions) VH: QVQLQQSGAELVKPGASVKMSCKASGYTFTSYWITWVKQRPGQGLEWIGDIYPGSGSTNQNEKFKSKATLTVDTSSSTAYMQLSSLTSEDSAVYYCAKLRPYYFVYWGQGTTLTVSS VL: DIQMTQTPSSLSASLGDRVTISCRASQDISNYLNWYQQKPDGTVKLLIYYTSRLLSGVPSRFSGSGSGTDYSLTISNLEQEDIATYFCQQGNTLPLTFGAGTKLELKR |  |  |  |  |  |  |  | 0.144 µg/mL | 0.158 nM | 8.28e-05 s⁻¹ | 525000 M⁻¹ s⁻¹ | ~3 ng/mL | 0.151 µg/mL | no binding (tested: 10000 ng/ml (log 4)) | ~3 ng/mL |  |  |
| 71H8 (murine monoclonal antibody) (antibody, V domains shown) VH: QVQLQQSGAELVKPGASVKMSCKASGYTFTSYWITWVKQRPGQGLEWIGDIYPGSGSTNQNEKFKSKATLTVDTSSSTAYMQLSSLTSEDSAVYYCAKLRPYYFVYWGQGTTLTVSS VL: DIQMTQTPSSLSASLGDRVTISCRASQDISNYLNWYQQKPDGTVKLLIYYTSRLLSGVPSRFSGSGSGTDYSLTISNLEQEDIATYFCQQGNTLPLTFGAGTKLELK | no binding (tested: serial dilution from 40 µg/ml) | no binding | 0.126 µg/mL | 0.113 µg/mL | 0.0501 µg/mL | 0.052 µg/mL | 49.4 ng/mL |  |  |  |  |  |  |  |  |  |  |
| 6A12 (murine monoclonal antibody) (antibody, V domains shown) VH: QVQLQQSGPELVKPGASVKISCKASGYAFSSSWMNWVKQRPGKGLEWIGRIYPGDGITNYNGNFKGKATLTADKSSSTAYMQLSGLTSADSAVYFCAREFIPLGWGTGTTVTVSS VL: DIVMTQTPFSNPVTLGTSASISCRSSKSLLHSNGITYLYWYLQKPGQSPQLLIYQMSNLASGVPDRFSSSGSGTDFTLRISRVEAEDVGVYYCAQNLELPWTFGGGTKLEIK | no binding (tested: serial dilution from 40 µg/ml) | no binding | 0.253 µg/mL | 0.406 µg/mL | 0.05 µg/mL | 0.0415 µg/mL | 274 ng/mL |  |  |  |  |  |  |  |  |  |  |
| 71H8-VH3VL2 (antibody, human IgG1, kappa, V domains shown, humanized; also called 71H8-H3L2) VH: QVQLVQSGAEVKKPGASVKVSCKVSGYTFTSYWITWVRQRPGQGLEWIGDIYPGSGSTNQNEKFKSRVTLTVDTSTDTAYMELSSLRSEDTAVYYCATLRPYYFVYWGQGTLVTVSS VL: DIQMTQSPSSLSASVGDRVTITCRASQDISNYLNWYQQKPGKTPKLLIYYTSRLLSGVPSRFSGSGSGTDYTLTISSLQPEDFATYYCQQGNTLPLTFGQGTRLEIKR |  |  |  |  |  |  |  |  | 37.2 nM | 0.00871 s⁻¹ | 234000 M⁻¹ s⁻¹ | ~3 ng/mL |  |  | ~3 ng/mL | binds | no binding |
